Reference: US20220144937A1 (JIANGSU HENGRUI MEDICINE, published 2022)
Substitutions are numbered along the chain they refer to. Values belong to the molecule of their own block, whether it stands above or below them.

Legend:
[1] = target: T1, human IL-5 with his-tag (rhIL-5-his) (human, UniProt P05113 20-134); test: FACS blocking: biotin-IL-5 (100 ng/ml) binding to IL-5Rα/β-CHOS cells, antibody diluted
T1 sequence: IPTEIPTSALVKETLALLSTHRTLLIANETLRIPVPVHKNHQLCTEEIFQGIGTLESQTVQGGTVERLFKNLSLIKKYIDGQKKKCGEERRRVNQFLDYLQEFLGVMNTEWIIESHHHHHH
Procedure: Particular method was as follows: CD-CHO comprising […] and […] zeozin was used to culture CHO-S-IL-5Rα and β. During cell culture, the concentration should not exceed 3×10⁶ cells/ml. IL-5Rα/β-CHOS cells in good condition were centrifuged (at 1000 rpm, 5 min), and washed once with 10% FBS in PBS, and the cells were counted, the cell concentration was adjusted to 4×10⁶ cells/ml, and 25 μl was taken out and added into a round-bottom 96-well plate. The antibody to be tested was diluted with PBS solution comprising 10% FBS. The initial concentration was 200 μg/ml, and diluted at 1:10 for 8 gradient dilutions. 25 μl of 100 ng/ml IL-5 labeled by a biotin labeling kit (Tojin Chemical, LK03) was added, and fully mixed with 50 μl of diluted antibody at each concentration, and added into 96-well plate that has been added with cells, and incubated at 4° C. for 1 hour. After the incubation, the sample was centrifuged at 4° C. (400 g, 5 min), and the supernatant was removed, the plated was washed with 200 μl of pre-cooled PBS by centrifugation, repeated for twice; PE-Avidin secondary antibody diluted at 1:1333 was added and incubated in the dark at 4° C. for 40 min, centrifuged at 4° C.

[2] = target: T1, human IL-5 with his-tag (rhIL-5-his); test: cell-based or functional assay
[3] = target: T1, human IL-5 with his-tag (rhIL-5-his); test: Biacore T200, antibody captured on protein A chip, antigen in flow, 1:1 Langmuir
Procedure: The affinity of the humanized IL-5 antibody to be tested with human IL-5 was measured by Biacore T200 (GE) instrument.
(§1) The protein A biosensor chip was used to affinity capture of the molecules to be tested, and then the antigen (prepared in Example 1) flowed through the surface of the chip, and the reaction signal was detected in real time with the Biacore T200 instrument to obtain the binding and dissociation curves. After the dissociation of each experimental cycle was completed, the biosensor chip was washed and regenerated with glycine-hydrochloric acid regeneration solution (pH 1.5). BIA evaluation version 4.1 GE software was used to fit the data against (1:1) Langmuir model, and the affinity value was obtained and shown in Table 14.

[4] = target: T1, human IL-5 with his-tag (rhIL-5-his); test: Biacore
Procedure: (§2) The affinity of the murine IL-5 antibody to be tested with human IL-5 was measured by Biacore T200 (GE) instrument.
as §1, with “(recombinant human and cyno IL-5 prepared” for “(prepared”, “13.” for “14.”

[5] = target: T1, human IL-5 with his-tag (rhIL-5-his); test: Biacore T200, antibody captured on protein A chip, antigen in flow, 1:1 Langmuir; remark: listed apart in the source
Procedure: as §2
as §1, with “(recombinant human and cyno IL-5 prepared” for “(prepared”, “13.” for “14.”

cyno IL-5 with his-tag = target: T2, cyno IL-5 with his-tag (cyno (paragraph 156 says rhesus), UniProt P48093 20-134 (rhesus entry)); test: as above
T2 construct: also called rhesus IL-5 with His-tag; monkey IL-5
T2 sequence: T1 sequence with T7A, D80G
Procedure: as §2
as §1, with “(recombinant human and cyno IL-5 prepared” for “(prepared”, “13.” for “14.”

[6] = target: T1, human IL-5 with his-tag (rhIL-5-his); test: cell-based or functional assay; remark: listed apart in the source

IC50 [1]: 8.78 µg/mL
Molecule: IgG (antibody)

IC50 of inhibition of IL-5 induced TF1 cell proliferation [2]: 0.2 nM | Kd [3]: 0.412 nM | IC50 [1]: 0.0496 µg/mL
B1: h1779-014 (antibody, human IgG1, kappa, V domains shown)
VH: EVQLVQSGAEVKKPGASVKVSCKASGYTFTDYIIHWVKQAPGQGLEWIGYFNPNSGGSNYNENFKRKATMTADKSISTAYLEFSRLRSEDTAVYYCARRIAWDHWYFDFWGQGTMVTVSS
VL: DIQMTQSPSSLSASVGDRVTITCLASEGISNDVAWYQQKPGKSPKLLVYAASRLQDGVPSRFSGSGSGTDYTFTISSLQPEDIATYYCQQGYKTPLTFGQGTKLEIKR
notes: See recheck

Kd [4]: 0.458 nM | Kd [5]: 0.458 nM | Kd (cyno IL-5 with his-tag): 9.98 nM
B2: mAb1779 (antibody, V domains shown)
VH: QVKLLQSGAALVKPGDSVKMSCKASGYTFTDYIIHWVKQSHGKSLEWIGYFNPNSGGSNYNENFKRKATLTADKSSSTAYLEFSRVTSEDSAIYYCGRRIAWDHWYFDFWGPGTMVTVSS
VL: DIQMTQSPASLSASLGETVSIECLASEGISNDVAWYQQKSGRSPQLLVYAASRLQDGVPSRFSGSGSGTRYFFKISGMQPEDEADYFCQQGYKTPLTFGSGTKLEIK
notes: Murine hybridoma antibody

Kd [4]: 0.0899 nM | Kd [5]: 0.0899 nM | Kd (cyno IL-5 with his-tag): 0.312 nM
B3: mAb1780 (antibody, V domains shown)
VH: QVKLLQSGAALVKPGDSVKMSCKASDYTFTEYLIHWVKQSQGRSLEWIGYINPYSGGTVYNEKFKSKATLTVDKFSSTAYMEFRRLTFEDSAIYYCARDGGYSDPLDYWGQGVMVTVSS
VL: DTVLTQSPALAVSPGERVSISCRASEGLTSYMHWYQQKPGQQPKLLIYKASNLASGVPARFSGSGSGTDFTLTIDPVEADDAATYFCQQNWNDPWTFGGGTKLELK
notes: Murine hybridoma antibody

IC50 of inhibition of IL-5 induced TF1 cell proliferation [2]: 0.38 nM | Kd [3]: 0.207 nM
B4: h1773-007 (antibody, human IgG1, kappa, V domains shown)
VH: EVQLVESGGGLVQPGGSLKLSCAASGFTISNTYIHWVKQASGKGLEWIGRIDPAVGDTKHGPKFQGRFTISADDSKNTAYLQMNSLKTEDTAVYYCFRYGIYPDHWGQGTLVTVSS
VL: DIQLTQSPSSLSASVGDRVTITCSASSSVNYIYWYQQKPGKSPKPWIYLTATLASGVPSRFSGSGSGTDFTLTISSLQPEDFATYYCQQWNSYPYTFGGGTKVEIKR

IC50 of inhibition of IL-5 induced TF1 cell proliferation [2]: 0.34 nM | Kd [3]: 0.0173 nM
B5: h1706-006 (antibody, human IgG1, kappa, V domains shown)
VH: EVQLVESGGGLVQPGGSLRLSCAASGFTFSHYYMAWVRQAPGKGLEWVSSINYEGNSAYYGDSVKGRFTISRDNSKNTLYLQMNSLRAEDTAVYYCATETLRESLDYWGQGTMVTVSS
VL: DIQMTQSPSSVSASVGDRVTITCRASQDIGNYLSWYQQKPGKSPKLLIYSASNLEVGVPSRFSGSGSGTDFTLTISSLQPEDFATYYCLQHKQFPRTFGGGTKVEIKR
notes: Constant regions as for h1706-003

IC50 of inhibition of IL-5 induced TF1 cell proliferation [2]: 0.3 nM
B6: h1706-004 (antibody, human IgG1, kappa, V domains shown)
VH: B5 VH with S49T, V93T
VL: B5 VL with S43A

IC50 of inhibition of IL-5 induced TF1 cell proliferation [2]: 0.28 nM
B7: h1706-007 (antibody, human IgG1, kappa, V domains shown)
VH: B5 VH with S49T, V93T
VL: B5 VL

IC50 of inhibition of IL-5 induced TF1 cell proliferation [2]: 0.25 nM | Kd [3]: 0.0221 nM
B8: h1705-007 (antibody, human IgG1, kappa, V domains shown)
VH: B5 VH with N52S, N56D, S57I, A58T, T98S, E99Q, L105F, M113L
VL: B5 VL with G30A, S50G, A51T, G66R, H91D, Q93E

IC50 of inhibition of IL-5 induced TF1 cell proliferation [2]: 0.3 nM | Kd [3]: 0.0216 nM
B9: h1705-005 (antibody, human IgG1, kappa, V domains shown)
VH: B5 VH with S49T, N52S, N56D, S57I, A58T, V93T, T98S, E99Q, L105F, M113L
VL: B5 VL with G30A, S43A, S50G, A51T, H91D, Q93E

Kd [3]: 4.11 nM
B10: h1705-006 (antibody, human IgG1, kappa, V domains shown)
VH: B5 VH with N52S, N56D, S57I, A58T, T98K, E99Q, L105F, M113L
VL: B5 VL with G30A, S50G, A51T, G66R, H91D, Q93E

IC50 of inhibition of IL-5 induced TF1 cell proliferation [2]: 0.31 nM | Kd [3]: 0.0189 nM
B11: h1706-003 (antibody, human IgG1, kappa, V domains shown)
VH: B5 VH
VL: B5 VL with S43A

Kd [3]: 3.35 nM
B12: h1705-003 (antibody, human IgG1, kappa, V domains shown)
VH: B5 VH with N52S, N56D, S57I, A58T, T98K, E99Q, L105F, M113L
VL: B5 VL with G30A, S43A, S50G, A51T, H91D, Q93E

Kd [3]: 4.55 nM
B13: h1705-009 (antibody, human IgG1, kappa, V domains shown)
VH: B5 VH with N52S, N56D, S57I, A58T, T98K, E99Q, L105F, M113L
VL: B5 VL with G30A, L47V, S50G, A51T, G66R, T69S, F71Y, Y87F, H91D, Q93E

IC50 of inhibition of IL-5 induced TF1 cell proliferation [2]: 0.28 nM | Kd [3]: 0.023 nM
B14: h1705-011 (antibody, human IgG1, kappa, V domains shown)
VH: B5 VH with S49T, N52S, N56D, S57I, A58T, V93T, T98S, E99Q, L105F, M113L
VL: B5 VL with G30A, L47V, S50G, A51T, G66R, T69S, F71Y, Y87F, H91D, Q93E

IC50 of inhibition of IL-5 induced TF1 cell proliferation [2]: 0.3 nM | Kd [3]: 0.0205 nM
B15: h1705-010 (antibody, human IgG1, kappa, V domains shown)
VH: B5 VH with N52S, N56D, S57I, A58T, T98S, E99Q, L105F, M113L
VL: B5 VL with G30A, L47V, S50G, A51T, G66R, T69S, F71Y, Y87F, H91D, Q93E

IC50 of inhibition of IL-5 induced TF1 cell proliferation [2]: 0.3 nM | Kd [3]: 0.0214 nM
B16: h1705-004 (antibody, human IgG1, kappa, V domains shown)
VH: B5 VH with N52S, N56D, S57I, A58T, T98S, E99Q, L105F, M113L
VL: B5 VL with G30A, S43A, S50G, A51T, H91D, Q93E

IC50 of inhibition of IL-5 induced TF1 cell proliferation [2]: 0.16 nM | IC50 of blocking IL-5 induced eosinophil adhesion [6]: 0.0212 µg/mL | Kd [3]: 0.0778 nM | IC50 [1]: 0.016 µg/mL
B17: h1780-017 (antibody, human IgG1, kappa, V domains shown)
VH: EVQLVQSGAEVKKPGASVKVSCKASGYTFTEYLIHWVRQAPGQGLEWIGYINPYSGGTVYNEKFKSRATLTVDKSISTAYMEFSRLRSDDTAVYYCARDGGYSDPLDYWGQGTMVTVSS
VL: DTVLTQSPATLSLSPGERATLSCRASEGLTSYMHWYQQKPGQAPRLLIYKASNLASGVPARFSGSGSGTDFTLTISSLEPEDFATYFCQQNWNDPWTFGGGTKVEIKR

Kd [4]: 0.129 nM | Kd [5]: 0.129 nM | Kd (cyno IL-5 with his-tag): 0.476 nM
B18: mAb1773 (antibody, V domains shown)
VH: EVQLQQSLAELVRPGASVTLSCTASGFNIKNTYIHWVKQRPEQGLEWIGRIDPANGDTKHGPKFQGKATITADTSSNTAYLQFSSLTSEDTAIYYCFRYGIYPDHWGQGTPLTVSS
VL: QIVLTQSPALMSASPGEKVTMTCSASSSVNYIYWYQQKPRSSPKPWIYLTATLASGVPARFSGSGSGTSFSLTISRMEAEDAATYYCQQWNSYPYTFGGGTKLEIE
notes: Murine hybridoma antibody

IC50 of inhibition of IL-5 induced TF1 cell proliferation [2]: 0.3 nM | IC50 of blocking IL-5 induced eosinophil adhesion [6]: 0.0118 µg/mL | IC50 [1]: 0.0251 µg/mL
B19: Hu39D10 (antibody, human IgG4 S228P, kappa, V domains shown)
VH: EVQLVESGGGLVQPGGSLRLSCAVSGLSLTSNSVNWIRQAPGKGLEWVGLIWSNGDTDYNSAIKSRFTISRDTSKSTVYLQMNSLRAEDTAVYYCAREYYGYFDYWGQGTLVTVSS
VL: DIQMTQSPSSLSASVGDRVTITCLASEGISSYLAWYQQKPGKAPKLLIYGANSLQTGVPSRFSGSGSATDYTLTISSLQPEDFATYYCQQSYKFPNTFGQGTKVEVKR
notes: Anti-IL-5 antibody of WO2012083370A1, used as positive control; also called positive control; positive antibody
